# Measurements taken from publication PMC9371905.
# B1: AdML pre-mRNA (structured_RNA)
# RNA: GAGCUCGGUACCCCGUUCGUCCUCACUCUCUUCCGCAUCGCUGUCUGCGAGGGCCAGCUGUUGGGGUGAGUACUCCCUCUCAAAAGCGGGCAUGACUUCUGCCCUCGAGUUAUUAACCCUCACUAAAGGCAGUAGUCAAGGGUUUCCUUGAAGCUUUCGUGCUGACCCUGUCCCUUUUUUUUCCACAGCUGCAGGUCGACGUUGAGGACAAACUCUUCGCGGUCUUUCCAGUACUCUU
# Target: SRSF1-RBD (UniProt Q07955 1-203)
# Assay: EMSA
# SRSF1-RBD, sequence (Q07955 1-203): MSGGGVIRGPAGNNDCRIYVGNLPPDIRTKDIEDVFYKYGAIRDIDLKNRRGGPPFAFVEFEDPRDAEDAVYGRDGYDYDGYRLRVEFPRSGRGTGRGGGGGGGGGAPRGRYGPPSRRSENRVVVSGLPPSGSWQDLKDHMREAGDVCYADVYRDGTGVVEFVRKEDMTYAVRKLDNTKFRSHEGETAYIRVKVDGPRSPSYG
binder,measurement,value
B1,binding result,binds
